# In IntAct's records for PubMed 36931259:
# B1: 14-3-3 protein sigma (Homo sapiens), P31947 (parent)
# chain: MERASLIQKAKLAEQAERYEDMAAFMKGAVEKGEELSCEERNLLSVAYKNVVGGQRAAWRVLSSIEQKSNEEGSEEKGPEVREYREKVETELQGVCDTVLGLLDSHLIKEAGDAESRVFYLKMKGDYYRYLAEVATGDDKKRIIDSARSAYQEAMDISKKEMPPTNPIRLGLALNFSVFHYEIANSPEEAISLAKTTFDEAMADLHTLSEDSYKDSTLIMQLLRDNLTLWTADNAGEEGGEAPQEPQS
# partner: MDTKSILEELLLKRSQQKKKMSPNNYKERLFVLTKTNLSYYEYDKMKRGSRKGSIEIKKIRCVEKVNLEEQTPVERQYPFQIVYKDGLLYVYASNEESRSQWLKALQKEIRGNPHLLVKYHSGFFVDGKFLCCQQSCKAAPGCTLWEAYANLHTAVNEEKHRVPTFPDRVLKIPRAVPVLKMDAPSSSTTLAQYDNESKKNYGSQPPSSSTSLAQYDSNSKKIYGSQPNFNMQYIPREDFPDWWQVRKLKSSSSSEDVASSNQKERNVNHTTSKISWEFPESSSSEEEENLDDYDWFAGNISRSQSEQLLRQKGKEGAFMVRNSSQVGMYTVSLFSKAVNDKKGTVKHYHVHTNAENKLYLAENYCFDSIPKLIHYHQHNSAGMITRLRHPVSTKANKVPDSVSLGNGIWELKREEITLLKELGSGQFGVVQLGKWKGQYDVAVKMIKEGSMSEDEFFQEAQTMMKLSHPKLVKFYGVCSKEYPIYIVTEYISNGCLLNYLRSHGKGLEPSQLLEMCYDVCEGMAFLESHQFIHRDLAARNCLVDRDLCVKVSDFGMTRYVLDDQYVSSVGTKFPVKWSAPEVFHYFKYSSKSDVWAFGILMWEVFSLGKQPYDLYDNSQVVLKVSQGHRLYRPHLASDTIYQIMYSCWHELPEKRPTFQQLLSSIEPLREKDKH
# B2: 14-3-3 protein sigma (Homo sapiens), P31947 (parent)
# chain: B1 chain
# partner: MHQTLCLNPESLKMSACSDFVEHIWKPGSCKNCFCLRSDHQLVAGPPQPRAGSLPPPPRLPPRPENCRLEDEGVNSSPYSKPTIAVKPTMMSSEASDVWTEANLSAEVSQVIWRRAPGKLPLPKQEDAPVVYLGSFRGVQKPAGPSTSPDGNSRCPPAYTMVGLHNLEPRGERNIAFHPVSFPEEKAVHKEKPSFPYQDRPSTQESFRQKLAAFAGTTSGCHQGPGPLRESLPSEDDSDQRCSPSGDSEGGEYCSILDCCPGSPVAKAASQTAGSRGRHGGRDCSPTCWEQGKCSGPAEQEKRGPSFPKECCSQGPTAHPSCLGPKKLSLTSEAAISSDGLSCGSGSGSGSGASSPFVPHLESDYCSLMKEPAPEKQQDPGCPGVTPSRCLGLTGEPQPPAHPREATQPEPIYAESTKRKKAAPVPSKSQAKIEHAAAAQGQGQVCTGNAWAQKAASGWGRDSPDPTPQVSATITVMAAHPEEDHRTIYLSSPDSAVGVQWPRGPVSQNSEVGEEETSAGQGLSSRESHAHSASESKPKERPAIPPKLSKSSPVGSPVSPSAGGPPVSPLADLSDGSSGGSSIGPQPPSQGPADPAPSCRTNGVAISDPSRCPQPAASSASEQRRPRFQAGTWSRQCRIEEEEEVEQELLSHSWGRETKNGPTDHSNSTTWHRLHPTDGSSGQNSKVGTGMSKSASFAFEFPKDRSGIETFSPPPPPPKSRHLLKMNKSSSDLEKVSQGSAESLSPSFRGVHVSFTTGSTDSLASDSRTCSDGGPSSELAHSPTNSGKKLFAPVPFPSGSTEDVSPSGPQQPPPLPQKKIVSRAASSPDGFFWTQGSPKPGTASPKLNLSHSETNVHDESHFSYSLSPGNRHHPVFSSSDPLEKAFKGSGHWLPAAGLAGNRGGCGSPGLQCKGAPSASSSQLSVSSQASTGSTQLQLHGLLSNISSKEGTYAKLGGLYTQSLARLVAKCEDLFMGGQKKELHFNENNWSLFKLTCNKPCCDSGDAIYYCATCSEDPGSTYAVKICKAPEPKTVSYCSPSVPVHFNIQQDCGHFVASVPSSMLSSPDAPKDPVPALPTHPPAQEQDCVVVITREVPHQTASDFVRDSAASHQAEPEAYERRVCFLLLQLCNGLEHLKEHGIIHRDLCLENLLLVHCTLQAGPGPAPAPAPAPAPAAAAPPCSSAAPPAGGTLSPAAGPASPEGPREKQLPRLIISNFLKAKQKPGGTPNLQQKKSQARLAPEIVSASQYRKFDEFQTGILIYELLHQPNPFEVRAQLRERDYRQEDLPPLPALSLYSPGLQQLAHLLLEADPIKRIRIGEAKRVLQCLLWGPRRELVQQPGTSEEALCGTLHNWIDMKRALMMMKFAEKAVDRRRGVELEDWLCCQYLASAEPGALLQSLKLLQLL
# B3: 14-3-3 protein sigma (Homo sapiens), P31947 (parent)
# chain: B1 chain
# partner: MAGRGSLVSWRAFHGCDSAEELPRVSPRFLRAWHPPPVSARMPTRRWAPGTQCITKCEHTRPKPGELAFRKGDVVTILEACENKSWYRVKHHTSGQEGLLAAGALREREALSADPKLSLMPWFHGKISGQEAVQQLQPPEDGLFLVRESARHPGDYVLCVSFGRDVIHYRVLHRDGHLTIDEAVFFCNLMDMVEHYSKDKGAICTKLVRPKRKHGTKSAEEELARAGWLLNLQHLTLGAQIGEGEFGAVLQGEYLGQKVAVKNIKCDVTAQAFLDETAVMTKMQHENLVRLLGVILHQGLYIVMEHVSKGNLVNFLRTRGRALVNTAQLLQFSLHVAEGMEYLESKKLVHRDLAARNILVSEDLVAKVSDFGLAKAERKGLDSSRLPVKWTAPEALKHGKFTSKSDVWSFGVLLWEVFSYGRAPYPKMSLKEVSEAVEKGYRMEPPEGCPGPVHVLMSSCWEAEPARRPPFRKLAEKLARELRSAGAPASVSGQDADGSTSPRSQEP
# B4: 14-3-3 protein sigma (Homo sapiens), P31947 (parent)
# chain: B1 chain
# partner: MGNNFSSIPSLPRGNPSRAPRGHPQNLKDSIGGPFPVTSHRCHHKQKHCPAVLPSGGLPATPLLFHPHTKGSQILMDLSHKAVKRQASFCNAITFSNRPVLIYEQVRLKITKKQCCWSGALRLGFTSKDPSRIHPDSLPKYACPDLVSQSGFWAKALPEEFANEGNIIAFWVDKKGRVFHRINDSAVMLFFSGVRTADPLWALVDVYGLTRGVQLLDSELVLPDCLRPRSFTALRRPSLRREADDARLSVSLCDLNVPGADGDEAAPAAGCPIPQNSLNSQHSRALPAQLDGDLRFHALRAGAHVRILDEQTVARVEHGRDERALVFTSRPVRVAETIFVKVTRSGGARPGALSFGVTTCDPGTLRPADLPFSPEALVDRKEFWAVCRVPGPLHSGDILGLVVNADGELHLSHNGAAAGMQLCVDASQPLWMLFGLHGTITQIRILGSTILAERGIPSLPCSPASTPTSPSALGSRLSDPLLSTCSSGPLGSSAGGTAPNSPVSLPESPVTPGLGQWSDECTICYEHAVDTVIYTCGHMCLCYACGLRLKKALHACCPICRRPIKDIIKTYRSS
# B5: 14-3-3 protein sigma (Homo sapiens), P31947 (parent)
# chain: B1 chain
# partner: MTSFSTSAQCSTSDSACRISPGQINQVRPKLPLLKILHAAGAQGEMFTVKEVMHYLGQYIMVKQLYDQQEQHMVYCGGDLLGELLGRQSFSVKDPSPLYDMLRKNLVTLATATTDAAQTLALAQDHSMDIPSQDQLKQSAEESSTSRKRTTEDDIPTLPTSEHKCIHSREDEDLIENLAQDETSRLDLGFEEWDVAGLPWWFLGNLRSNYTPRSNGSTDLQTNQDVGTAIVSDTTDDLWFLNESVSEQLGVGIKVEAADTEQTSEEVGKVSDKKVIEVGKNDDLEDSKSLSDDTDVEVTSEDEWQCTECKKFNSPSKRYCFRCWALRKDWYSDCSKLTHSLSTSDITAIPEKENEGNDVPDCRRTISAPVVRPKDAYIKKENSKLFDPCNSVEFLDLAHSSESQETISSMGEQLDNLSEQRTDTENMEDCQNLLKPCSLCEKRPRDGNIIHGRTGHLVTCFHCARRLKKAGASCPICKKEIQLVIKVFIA
# Variants of: B1
# Conditions: with bmx_human BMX
row,Variant,effect of a mutation on the interaction
1,K49E;R56E;V178D,decreasing interaction strength

# Variants of: B2
# Conditions: with prag1_human PRAG1, Q86YV5
row,Variant,effect of a mutation on the interaction
1,K49E;R56E;V178D,decreasing interaction strength

# Variants of: B3
# Conditions: with matk_human MATK
row,Variant,effect of a mutation on the interaction
1,K49E;R56E;V178D,decreasing interaction strength

# Variants of: B4
# Conditions: with neul1_human NEURL1, O76050
row,Variant,effect of a mutation on the interaction
1,K49E;R56E;V178D,decreasing interaction strength

# Variants of: B5
# Conditions: with mdm4_human MDM4, O15151
row,Variant,effect of a mutation on the interaction
1,K49E;R56E;V178D,decreasing interaction strength
